Tests used:
[1] = biological target: full length human BTLA expressed on cells (human) (UniProt Q7Z6A9); assay: cell-based or functional assay
[2] = biological target: human BTLA extracellular region / murine CD28 construct with Y39R, on HEK-293T cells (human; mouse) (UniProt P31041); assay: flow cytometry, GFP-positive transfected HEK-293T cells, fluorochrome-conjugated antibody at 10 ug/ml, Geo-mean relative to wild type
[3] = biological target: human BTLA extracellular region / murine CD28 construct with K41E, on HEK-293T cells (human; mouse) (UniProt P31041); assay: as above
Chain of human BTLA extracellular region / murine CD28 construct with K41E, on HEK-293T cells (human; mouse) (P31041 other isoform, or with tags, fused parts or gaps K41E K41E): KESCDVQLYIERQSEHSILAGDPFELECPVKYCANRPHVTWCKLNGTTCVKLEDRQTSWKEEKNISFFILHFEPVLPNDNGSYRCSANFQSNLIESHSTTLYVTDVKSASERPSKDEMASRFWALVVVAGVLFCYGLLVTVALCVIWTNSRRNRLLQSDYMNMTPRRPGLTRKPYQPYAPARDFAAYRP

L48R (Mus musculus) = assay: as above

Chain of human BTLA extracellular region / murine CD28 construct with Y39R, on HEK-293T cells (human; mouse) (P31041 other isoform, or with tags, fused parts or gaps Y39R Y39R): as the sequence (P31041 other isoform, or with tags, fused parts or gaps K41E K41E) above, with Y9R, E11K counted along it

Binder | inhibition of NFkB signal, IC50 [1] [nM] | maximal inhibition of NFkB signal [1] [%] | binding as % of binding to wild-type BTLA [2] [%] | binding as % of binding to wild-type BTLA [3] [%] | binding as % of binding to wild-type BTLA (L48R (Mus musculus)) [%]
22B3 hIgG4PAA (antibody, from another filing, V domains shown) VH: QVQLVQSGAEVKKPGASVKVSCKASGFSLSSYGVSWVRQAPGQGLEWMGAISYDGITYYASWAKSRVTMTRDTSTSTVYMELSSLRSEDTAVYYCARGDYYDDYVYVYALDIWGQGTLVTVSS VL: EIVLTQSPGTLSLSPGERATLSCQASQSISTALAWYQQKPGQAPRLLIYAASTLASGIPDRFSGSGSGTDFTLTISRLEPEDFAVYYCQQGYSSSNLDNVFGGGTKVEIKR | 3.8 | 18 | – | – | –
11.5.1 (antibody, V domains shown) VH: EVQLQESGPSLVKPSQTLSLTCSVTGDSITSAYWNWIRKFPGNKLEYMGYISYSGSTYFNPSLKSRISITRNTSKNQYYLQLNSVTTEDTATYYCARSHYYGYYFDYWGHGTTLTVSS VL: DIVLTQSPASLAVSLGQRATISCRASETIDSYGDSLMHWYQQKAGQPPKLLIYRASNLESGIPARFSGSGSRTDFTLTINPVEADDVATYYCQQTDEDPYTFGGGTKLEIK | – | – | 0.76 | 1.8 | 145
2.8.6 (antibody, V domains shown) VH: QVQLKESGPGLVAPSQSLSITCTVSGFSLTTYGVHWVRQSPGKGLEWLGVMWPGGRTSYNPAPMSRLSISKDNSKSQVFLKMNSLQTDDTAMYYCVRGDYEYDYYAMDYWGQGTSVTVSS VL: QIVLSQSPAILSASPGEKVTMTCRASSSVSYMHWYQQKPGSSPKPWIYATSNLASGVPARFSGSGSGTSYSLTISRMEAEDAATYYCHQWSSNPYTFGGGTKLEIK | – | – | 60 | 91.4 | 102

Source: patent US20230235058A1
